The values that follow come from patent US20190367633A1 (BEIJING HANMI PHARMACEUTICAL, published 2019).

Assay [1] has as its target T1, PD-1 on PD-1-overexpressing CHO/PD-1 cells (GenScript, Cat. No. M00529) (UniProt Q15116 25-288, limits assumed).
T1 construct: whole, on cells
Nature of the assay: flow cytometry, association of PKH26-stained CHO/PD-1 and CFSE-stained SK-BR-3 cells. On the technique in general: A flow cytometer gives signals particle by particle.

The target of assay [2] is T2, Recombinant human PD-1 (Beijing Yiqiao Shenzhou, Cat. No. 10377-H08H) (human, UniProt Q15116 25-167).
T2 construct: Bought protein coated on the ELISA plate
Nature of the assay: ELISA, antigen coated at 1 ug/mL. As to the method: The coating was performed at 4° C. overnight. […] Color development was terminated by adding 100 μL/well of 1 M H₂SO₄. The absorbance at 450 nm was read on a microplate reader.
For orientation: An ELISA detects its analyte on a solid surface through an enzyme-linked reagent.

T1 sequence (Q15116 25-288 limits assumed, one chain of several): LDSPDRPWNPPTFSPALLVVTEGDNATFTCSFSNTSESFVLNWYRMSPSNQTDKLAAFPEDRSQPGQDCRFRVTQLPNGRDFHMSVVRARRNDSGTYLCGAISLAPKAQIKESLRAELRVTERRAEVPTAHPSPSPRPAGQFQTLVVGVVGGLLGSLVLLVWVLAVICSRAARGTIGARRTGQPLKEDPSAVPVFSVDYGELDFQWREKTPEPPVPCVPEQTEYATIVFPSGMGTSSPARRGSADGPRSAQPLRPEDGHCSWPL
T2 sequence (Q15116 25-167 limits assumed): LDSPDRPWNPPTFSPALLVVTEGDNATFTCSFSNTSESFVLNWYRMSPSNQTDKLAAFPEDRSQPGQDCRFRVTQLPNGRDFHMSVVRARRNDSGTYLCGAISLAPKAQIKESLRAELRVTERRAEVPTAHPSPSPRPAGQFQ

B1: anti-PD-1pem/anti-HER2 heterodimeric bispecific antibody (bispecific antibody, human IgG1, kappa)
heavy 1: not shown
light 1: EIVLTQSPATLSLSPGERATLSCRASKGVSTSGYSYLHWYQQKPGQAPRLLIYLASYLESGVPARFSGSGSGTDFTLTISSLEPEDFAVYYCQHSRDLPLTFGGGTKVEIKRTVAAPSVFIFPPSDEQLKSGTASVVCLLNNFYPREAKVQWKVDNALQSGNSQESVTEQDSKDSTYSLSSTLTLSKADYEKHKVYACEVTHQGLSSPVTKSFNRGEC
heavy 2: not shown
light 2: not shown
notes: also called PD-1/HER2 heterodimeric antibody; PD-1/HER2 heterodimer
As to B1, the binding result in assay [1] and in assay [2] was “binds” throughout.
